Results as given in patent publication US20140271457A1 (AbbVie / Abbott, published 2014).
Where a chain is given by its changes, count along the chain named. One block for each binder: values may come before it.

Molecular target: Recombinant Human TNF-α/TNFSF1A (human, UniProt P01375 77-233)
Assay: cell-based or functional assay

Chain of Recombinant Human TNF-α/TNFSF1A (P01375 77-233 limits assumed): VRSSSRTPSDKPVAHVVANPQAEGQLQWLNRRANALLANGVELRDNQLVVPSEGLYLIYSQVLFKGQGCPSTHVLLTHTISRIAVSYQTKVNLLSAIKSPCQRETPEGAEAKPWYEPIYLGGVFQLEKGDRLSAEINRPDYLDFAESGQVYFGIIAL

C-Terminal VD huTNFα Neutralization Assay IC50: 0.472 nM
B1: DVD3088 (bispecific antibody, IgG1)
VH: EVQLVQSGAEVKKPGASVKVSCKASGYTFTTYGVSWVRQAPGQGLEWMGEIYPGNYNTYYNEKFRGRVTMTTDTSTSTAYMELRSLRSDDTAVYYCARWRTSYFSDYGYFDYWGQGTTVTVSSGGGGSGGGGSEVQLVESGGGLVQPGGSLRLSCAASGFTFSNYGVTWVRQAPGKGLEWVSMIWADGSTHYASSVKGRFTISRDNSKNTLYLQMNSLRAEDTAVYYCAREWQHGPVAYWGQGTLVTVSS
VL: DVVMTQSPLSLPVTLGQPASISCRSSQSLVHSHGNTYLHWYQQRPGQSPRLLIYTVSNRFSGVPDRFSGSGSGTDFTLKISRVEAEDVGVYYCSQSTHVPYTFGGGTKVEIKRGGSGGGGSGDIQMTQSPSSLSASVGDRVTITCRASQLVSSAVAWYQQKPGKAPKLLIYWASARHTGVPSRFSGSGSGTDFTLTISSLQPEDFATYYCQQHYKTPFTFGQGTKLEIKR

C-Terminal VD huTNFα Neutralization Assay IC50: 0.064 nM
B2: DVD2791 (bispecific antibody, IgG1)
VH: EVTLRESGPGLVKPTQTLTLTCTLYGFSLSTSDMGVDWIRQPPGKGLEWLAHIWWDDVKRYNPALKSRLTISKDTSKNQVVLKLTSVDPVDTATYYCARTVSSGYIYYAMDYWGQGTLVTVSSASTKGPEVQLVQSGAEVKKPGASVKVSCKASGYTFANYGIIWVRQAPGQGLEWMGWINTYTGKPTYAQKFQGRVTMTTDTSTSTAYMELSSLRSEDTAVYYCARKLFTTMDVTDNAMDYWGQGTTVTVSS
VL: DIQMTQSPSSLSASVGDRVTISCRASQDIRNYLNWYQQKPGKAPKLLIFYTSKLHSGVPSRFSGSGSGTDYTLTISSLQPEDIATYYCQQGLTPPLTFGGGTKVEIKRTVAAPSVFIFPPDIQMTQSPSSLSASVGDRVTITCRASQDISQYLNWYQQKPGKAPKLLIYYTSRLQSGVPSRFSGSGSGTDFTLTISSLQPEDFATYFCQQGNTWPPTFGQGTKLEIKR

C-Terminal VD huTNFα Neutralization Assay IC50: 0.49 nM
B3: DVD3014 (bispecific antibody, IgG1)
VH: B2 VH with A159N, T231N, M233V, D234A
VL: DIQMTQSPSSLSASVGDRVTISCRASQDIRNYLNWYQQKPGKAPKLLIFYTSKLHSGVPSRFSGSGSGTDYTLTISSLQPEDIATYYCQQGLTPPLTFGGGTKVEIKRTVAAPDIQMTQSPSSLSASVGDRVTITCRASQDIENYLNWYQQKPGKAPKLLIYYTSRLQSGVPSRFSGSGSGTDFTLTISSLQPEDFATYFCQQGNTQPPTFGQGTKLEIKR

C-Terminal VD huTNFα Neutralization Assay IC50: 0.148 nM
B4: DVD3016 (bispecific antibody, IgG1)
VH: B2 VH with A159N, T231N, M233V, D234A
VL: B2 VL with S150E, Q151N, W214Q

C-Terminal VD huTNFα Neutralization Assay IC50: 0.136 nM
B5: DVD2792 (bispecific antibody, IgG1)
VH: EVTLRESGPGLVKPTQTLTLTCTLYGFSLSTSDMGVDWIRQPPGKGLEWLAHIWWDDVKRYNPALKSRLTISKDTSKNQVVLKLTSVDPVDTATYYCARTVSSGYIYYAMDYWGQGTLVTVSSASTKGPSVFPLAPEVQLVQSGAEVKKPGASVKVSCKASGYTFANYGIIWVRQAPGQGLEWMGWINTYTGKPTYAQKFQGRVTMTTDTSTSTAYMELSSLRSEDTAVYYCARKLFTTMDVTDNAMDYWGQGTTVTVSS
VL: B3 VL with E143S, N144Q, Q207W

C-Terminal VD huTNFα Neutralization Assay IC50: 0.234 nM
B6: DVD3017 (bispecific antibody, IgG1)
VH: B5 VH with A166N, T238N, M240V, D241A
VL: B3 VL

N-Terminal VD huTNFα Neutralization Assay IC50: 0.034 nM
B7: DVD3012 (bispecific antibody, IgG1)
VH: EVQLVQSGAEVKKPGASVKVSCKASGYTFNNYGIIWVRQAPGQGLEWMGWINTYTGKPTYAQKFQGRVTMTTDTSTSTAYMELSSLRSEDTAVYYCARKLFNTVAVTDNAMDYWGQGTTVTVSSASTKGPSVFPLAPEVTLRESGPGLVKPTQTLTLTCTLYGFSLSTSDMGVDWIRQPPGKGLEWLAHIWWDDVKRYNPALKSRLTISKDTSKNQVVLKLTSVDPVDTATYYCARTVSSGYIYYAMDYWGQGTLVTVSS
VL: DIQMTQSPSSLSASVGDRVTITCRASQDIENYLNWYQQKPGKAPKLLIYYTSRLQSGVPSRFSGSGSGTDFTLTISSLQPEDFATYFCQQGNTQPPTFGQGTKLEIKRTVAAPDIQMTQSPSSLSASVGDRVTISCRASQDIRNYLNWYQQKPGKAPKLLIFYTSKLHSGVPSRFSGSGSGTDYTLTISSLQPEDIATYYCQQGLTPPLTFGGGTKVEIKR

C-Terminal VD huTNFα Neutralization Assay IC50: 0.229 nM
B8: DVD3013 (bispecific antibody, IgG1)
VH: EVTLRESGPGLVKPTQTLTLTCTLYGFSLSTSDMGVDWIRQPPGKGLEWLAHIWWDDVKRYNPALKSRLTISKDTSKNQVVLKLTSVDPVDTATYYCARTVSSGYIYYAMDYWGQGTLVTVSSGGGGSGGGGSEVQLVQSGAEVKKPGASVKVSCKASGYTFNNYGIIWVRQAPGQGLEWMGWINTYTGKPTYAQKFQGRVTMTTDTSTSTAYMELSSLRSEDTAVYYCARKLFNTVAVTDNAMDYWGQGTTVTVSS
VL: DIQMTQSPSSLSASVGDRVTISCRASQDIRNYLNWYQQKPGKAPKLLIFYTSKLHSGVPSRFSGSGSGTDYTLTISSLQPEDIATYYCQQGLTPPLTFGGGTKVEIKRGGSGGGGSGDIQMTQSPSSLSASVGDRVTITCRASQDIENYLNWYQQKPGKAPKLLIYYTSRLQSGVPSRFSGSGSGTDFTLTISSLQPEDFATYFCQQGNTQPPTFGQGTKLEIKR

N-Terminal VD huTNFα Neutralization Assay IC50: 0.024 nM
B9: DVD3011 (bispecific antibody, IgG1)
VH: EVQLVQSGAEVKKPGASVKVSCKASGYTFNNYGIIWVRQAPGQGLEWMGWINTYTGKPTYAQKFQGRVTMTTDTSTSTAYMELSSLRSEDTAVYYCARKLFNTVAVTDNAMDYWGQGTTVTVSSASTKGPEVTLRESGPGLVKPTQTLTLTCTLYGFSLSTSDMGVDWIRQPPGKGLEWLAHIWWDDVKRYNPALKSRLTISKDTSKNQVVLKLTSVDPVDTATYYCARTVSSGYIYYAMDYWGQGTLVTVSS
VL: DIQMTQSPSSLSASVGDRVTITCRASQDIENYLNWYQQKPGKAPKLLIYYTSRLQSGVPSRFSGSGSGTDFTLTISSLQPEDFATYFCQQGNTQPPTFGQGTKLEIKRTVAAPSVFIFPPDIQMTQSPSSLSASVGDRVTISCRASQDIRNYLNWYQQKPGKAPKLLIFYTSKLHSGVPSRFSGSGSGTDYTLTISSLQPEDIATYYCQQGLTPPLTFGGGTKVEIKR
